The results in this text go back to patent US20040001801A1 (priority 2002, published 2004).

For the data set the following is noted: mouse, in vivo.

Square brackets hold non-standard residues; d marks the D form. Peptide text beside a SMILES is read from it. * marks the point of attachment. Doxorubicin(3'-N) = COc1cccc2c1C(=O)c1c(O)c3c(c(O)c1C2=O)C[C@@](O)(C(=O)CO)C[C@@H]3O[C@H]1C[C@H](N*)[C@H](O)[C@H](C)O1; Nle = CCCC[C@H](N)C(=O)O

`CCCC[C@H](NC(=O)[C@H](CO)NC(=O)[C@H](CCCNC(=N)N)NC(=O)CNC(=O)[C@H](CO)NC(=O)CNC(C)=O)C(=O)N[C@H]1C[C@H](O[C@H]2C[C@](O)(C(=O)CO)Cc3c(O)c4c(c(O)c32)C(=O)c2c(OC)cccc2C4=O)O[C@@H](C)[C@H]1O` [Ac-Gly-Ser-Gly-Arg-Ser-nLeu-Dox] (Ac-GSGRS[Nle]-{Doxorubicin(3'-N)}): the “levels of dox and nor-leu dox in the plasma compared with the tumor” value is on record as “lower levels”; the “parent conjugate in the tumor” value was “does not get into the tumor”; the “toxins (norleu dox and dox) concentrations in the tumor” value was “μM concentrations”.
